Assay results: patent US20220220215A1 (CRESCENDO BIOLOGICS, published 2022)

Target: human CD137 expressed on cells (Jurkat human CD137 NF-kB luciferase reporter cells; human CD8+ T cells) (human, UniProt Q07011 24-255)
Test: cell-based or functional assay

Jurkat-CD137/CHO-PD-1 Reporter Assay EC50 [nM] | Binder
0.507 | TPP-1015: CD137A-6GS-PDA2-6GS-HSA3-His (bispecific antibody) EVQLVESGGGLVQPGGSLRLSCAASGFTLSNYWMNWVRQAPGKGLEWVANINQDGSERYYVDSVKGRFTISRDNAKNSLYLQMNSLRAEDTAVYYCARGGEGYGVDHYGLDVSGQGTTVTVSSGGGGSGGGGSGGGGSGGGGSGGGGSGGGGSEVQLVESGGGVVRPGGSLRLSCAASGFTFDDYAMSWVRQAPGKGLEWVSGITWNAGSTGYADSVKGRFTISRDNAKNSLYLQMNSLRAEDTALYYCVRDKYSYAWSYDDFDIWGQGTMVTVSSGGGGSGGGGSGGGGSGGGGSGGGGSGGGGSEVQLLESGGGLVKPGGSLRLSCAASGFTVSSYTMNWVRQAPGKGLEWVSSISSSGRYIYYADSVKGRFTISRDNAKNSLYLQMNSLRAEDTAVYYCARDPRMVGNPHEFDIWGQGTMVTVSSAAAHHHHHH
0.273 | TPP-1018: CD137A-6GS-PD138G7(G109D)-6GS-HSA3-His (bispecific antibody) EVQLVESGGGLVQPGGSLRLSCAASGFTLSNYWMNWVRQAPGKGLEWVANINQDGSERYYVDSVKGRFTISRDNAKNSLYLQMNSLRAEDTAVYYCARGGEGYGVDHYGLDVSGQGTTVTVSSGGGGSGGGGSGGGGSGGGGSGGGGSGGGGSEVQLVESGGGVVRPGGSLRLSCAASGFTFDDYAMSWVRQAPGKGLEWVSGITWNGGSTGYADSVKDRFTISRDNAKNSLYLQMNSLRAEDTALYYCVRDKYSYAWSYDDFDIWGQGTMVTVSSGGGGSGGGGSGGGGSGGGGSGGGGSGGGGSEVQLLESGGGLVKPGGSLRLSCAASGFTVSSYTMNWVRQAPGKGLEWVSSISSSGRYIYYADSVKGRFTISRDNAKNSLYLQMNSLRAEDTAVYYCARDPRMVGNPHEFDIWGQGTMVTVSSAAAHHHHHH
0.21 | TPP-1017: CD137A-6GS-PD138G7(G109D)-6GS-HSA2-His (bispecific antibody) EVQLVESGGGLVQPGGSLRLSCAASGFTLSNYWMNWVRQAPGKGLEWVANINQDGSERYYVDSVKGRFTISRDNAKNSLYLQMNSLRAEDTAVYYCARGGEGYGVDHYGLDVSGQGTTVTVSSGGGGSGGGGSGGGGSGGGGSGGGGSGGGGSEVQLVESGGGVVRPGGSLRLSCAASGFTFDDYAMSWVRQAPGKGLEWVSGITWNGGSTGYADSVKDRFTISRDNAKNSLYLQMNSLRAEDTALYYCVRDKYSYAWSYDDFDIWGQGTMVTVSSGGGGSGGGGSGGGGSGGGGSGGGGSGGGGSEVQLVESGGGLVKPGGSLRLSCAASGFTFSNYNMNWVRQAPGKGLEWVSSISSAGTHIYYADSVKGRFTISRDNAKNSLYLQMNSLRAEDTAVYYCARDPHSTGWYKDFDYWGQGTLVTVSSAAAHHHHHH
0.437 | TPP-1023: CD137A-6GS-HSA3-6GS-PDA-His (bispecific antibody) EVQLVESGGGLVQPGGSLRLSCAASGFTLSNYWMNWVRQAPGKGLEWVANINQDGSERYYVDSVKGRFTISRDNAKNSLYLQMNSLRAEDTAVYYCARGGEGYGVDHYGLDVSGQGTTVTVSSGGGGSGGGGSGGGGSGGGGSGGGGSGGGGSEVQLLESGGGLVKPGGSLRLSCAASGFTVSSYTMNWVRQAPGKGLEWVSSISSSGRYIYYADSVKGRFTISRDNAKNSLYLQMNSLRAEDTAVYYCARDPRMVGNPHEFDIWGQGTMVTVSSGGGGSGGGGSGGGGSGGGGSGGGGSGGGGSEVQLVESGGGLVQPGRSLRLSCAASGFTFDDYALHWVRQAPGKDLEWVSGISWNGGSYGYADSVKGRFTISRDNAKNSLYLQMNSLRAEDTALYYCVREKGPGLTGSTADYYGLDAWGQGTMVTVSSAAAHHHHHH
25.7 | TPP-943: PDA-6GS-172E1-13-6GS-HSA2-His (bispecific antibody) EVQLVESGGGLVQPGRSLRLSCAASGFTFDDYALHWVRQAPGKDLEWVSGISWNGGSYGYADSVKGRFTISRDNAKNSLYLQMNSLRAEDTALYYCVREKGPGLTGSTADYYGLDAWGQGTMVTVSSGGGGSGGGGSGGGGSGGGGSGGGGSGGGGSEVQLVESGGGVVQPGGSLRLSCAASGFTFSNYGMHWVRQAPGKGLEWVAVISNDGNTKTYADSVKGRFTISRDNSKNTLYLQMNSLRAEDTAVYYCAQDETTTVTASYYFDYWGQGTLVTVSSGGGGSGGGGSGGGGSGGGGSGGGGSGGGGSEVQLLESGGGLVKPGGSLRLSCAASGFTVSSYTMNWVRQAPGKGLEWVSSISSSGRYIYYADSVKGRFTISRDNAKNSLYLQMNSLRAEDTAVYYCARDPRMVGNPHEFDIWGQGTMVTVSSAAAHHHHHH
57.4 | TPP-942: PDA-6GS-172E1-13-6GS-HSA2-2-His (bispecific antibody) EVQLVESGGGLVQPGRSLRLSCAASGFTFDDYALHWVRQAPGKDLEWVSGISWNGGSYGYADSVKGRFTISRDNAKNSLYLQMNSLRAEDTALYYCVREKGPGLTGSTADYYGLDAWGQGTMVTVSSGGGGSGGGGSGGGGSGGGGSGGGGSGGGGSEVQLVESGGGVVQPGGSLRLSCAASGFTFSNYGMHWVRQAPGKGLEWVAVISNDGNTKTYADSVKGRFTISRDNSKNTLYLQMNSLRAEDTAVYYCAQDETTTVTASYYFDYWGQGTLVTVSSGGGGSGGGGSGGGGSGGGGSGGGGSGGGGSEVQLVESGGGLVKPGGSLRLSCAASGFTFSNYNMNWVRQAPGKGLEWVSSISSAGTHIYYADSVKGRFTISRDNAKNSLYLQMNSLRAEDTAVYYCARDPHSTGWYKDFDYWGQGTLVTVSSAAAHHHHHH
0.0809 | TPP-1291 PD138G7(G109D)-6GS-CD137A-6GS-HSA1943 (bispecific antibody) EVQLVESGGGVVRPGGSLRLSCAASGFTFDDYAMSWVRQAPGKGLEWVSGITWNGGSTGYADSVKDRFTISRDNAKNSLYLQMNSLRAEDTALYYCVRDKYSYAWSYDDFDIWGQGTMVTVSSGGGGSGGGGSGGGGSGGGGSGGGGSGGGGSEVQLVESGGGLVQPGGSLRLSCASGFTLSNYWMNWVRQAPGKGLEWVANINQDGSERYYVDSVKGRFTISRDNAKNSLYLQMNSLRAEDTAVYYCARGGEGYGVDHYGLDVSGQGTTVTVSSGGGGSGGGGSGGGGSGGGGSGGGGSGGGGSEVQLLESGGGLVKPGGSLRLSCAASGFTVSSYTMNWVRQAPGKGLEWVSSISSSGRYIYYADSVKGRFTISRDNAKNSLYLQMNSLRAEDTAVYYCARDPRMVGNPHEFDIWGQGTMVTVSS
0.509 | TPP-1025: CD137A-6GS-HSA3-2-6GS-PDA2-His (bispecific antibody) EVQLVESGGGLVQPGGSLRLSCAASGFTLSNYWMNWVRQAPGKGLEWVANINQDGSERYYVDSVKGRFTISRDNAKNSLYLQMNSLRAEDTAVYYCARGGEGYGVDHYGLDVSGQGTTVTVSSGGGGSGGGGSGGGGSGGGGSGGGGSGGGGSEVQLLESGGGLVKPGGSLRLSCAASGFTVSSYTMNWVRQAPGKGLEWVSSISSSGRYIYYADSVKGRFTISRDNAKNSLYLQMNSLRAEDTAVYYCARDPRMVGNPHEFDIWGQGTMVTVSSGGGGSGGGGSGGGGSGGGGSGGGGSGGGGSEVQLVESGGGVVRPGGSLRLSCAASGFTFDDYAMSWVRQAPGKGLEWVSGITWNAGSTGYADSVKGRFTISRDNAKNSLYLQMNSLRAEDTALYYCVRDKYSYAWSYDDFDIWGQGTMVTVSSAAAHHHHHH
0.0323 | TPP-1294 PDBlocker1.92-6GS-CD137A-7-6GS-HSA3 (bispecific antibody) EVQLVESGGGLVKPGGSLRLSCAASGFTFSDESMTWMRQAPGKGLEWVSYISSGGGVKFYADSVKGRFTISRDNAKNSLYLQMNSLRAEDTAVYYCAREAPLRLGESPHDAFDISGQGTMVTVSSGGGGSGGGGSGGGGSGGGGSGGGGSGGGGSEVQLVESGGGLVQPGGSLRLSCAASGFTLSNYWMNWVRQAPGKGLEWVANINQDGSERYYVDSVKGRFTISRDNAKNSLYLQMNSLRAEDTAVYYCARGGEGYGVDHYGLDVSGQGTTVTVSSGGGGSGGGGSGGGGSGGGGSGGGGSGGGGSEVQLLESGGGLVKPGGSLRLSCAASGFTVSSYTMNWVRQAPGKGLEWVSSISSSGRYIYYADSVKGRFTISRDNAKNSLYLQMNSLRAEDTAVYYCARDPRMVGNPHEFDIWGQGTMVTVSS
0.698 | TPP-1016: CD137A-6GS-PDA2-6GS-HSA1-His (bispecific antibody) EVQLVESGGGLVQPGGSLRLSCAASGFTLSNYWMNWVRQAPGKGLEWVANINQDGSERYYVDSVKGRFTISRDNAKNSLYLQMNSLRAEDTAVYYCARGGEGYGVDHYGLDVSGQGTTVTVSSGGGGSGGGGSGGGGSGGGGSGGGGSGGGGSEVQLVESGGGVVRPGGSLRLSCAASGFTFDDYAMSWVRQAPGKGLEWVSGITWNAGSTGYADSVKGRFTISRDNAKNSLYLQMNSLRAEDTALYYCVRDKYSYAWSYDDFDIWGQGTMVTVSSGGGGSGGGGSGGGGSGGGGSGGGGSGGGGSEVQLVESGGGLVQPGRSLRLSCAASGFTFHHYAMHWVRQAPGKGLEWVSGISWNGNKITYADSVKGRFTISRDNAKNSLYLQMNSLRAEDTALYYCVRDSSLFIVGAPTFEHWGRGTLVTVSSAAAHHHHHH
3.26 | TPP-1052: PDA2-6GS-HSA3-6GS-CD137D-His (bispecific antibody) EVQLVESGGGVVRPGGSLRLSCAASGFTFDDYAMSWVRQAPGKGLEWVSGITWNAGSTGYADSVKGRFTISRDNAKNSLYLQMNSLRAEDTALYYCVRDKYSYAWSYDDFDIWGQGTMVTVSSGGGGSGGGGSGGGGSGGGGSGGGGSGGGGSEVQLLESGGGLVKPGGSLRLSCAASGFTVSSYTMNWVRQAPGKGLEWVSSISSSGRYIYYADSVKGRFTISRDNAKNSLYLQMNSLRAEDTAVYYCARDPRMVGNPHEFDIWGQGTMVTVSSGGGGSGGGGSGGGGSGGGGSGGGGSGGGGSEVQLVESGGGVVQPGGSLRLSCAASGFTFSNYGMHWVRQAPGKGLEWVAVISNDGNTKTYADSVKGRFTISRDNSKNTLYLQMNSLRAEDTAVYYCAQDETTTVTASYYFDYWGQGTLVTVSSAAAHHHHHH
43 | TPP-950: PDA2-6GS-172E1-13-6GS-HSA2-His (bispecific antibody) EVQLVESGGGVVRPGGSLRLSCAASGFTFDDYAMSWVRQAPGKGLEWVSGITWNAGSTGYADSVKGRFTISRDNAKNSLYLQMNSLRAEDTALYYCVRDKYSYAWSYDDFDIWGQGTMVTVSSGGGGSGGGGSGGGGSGGGGSGGGGSGGGGSEVQLVESGGGVVQPGGSLRLSCAASGFTFSNYGMHWVRQAPGKGLEWVAVISNDGNTKTYADSVKGRFTISRDNSKNTLYLQMNSLRAEDTAVYYCAQDETTTVTASYYFDYWGQGTLVTVSSGGGGSGGGGSGGGGSGGGGSGGGGSGGGGSEVQLVESGGGLVKPGGSLRLSCAASGFTFSNYNMNWVRQAPGKGLEWVSSISSAGTHIYYADSVKGRFTISRDNAKNSLYLQMNSLRAEDTAVYYCARDPHSTGWYKDFDYWGQGTLVTVSSAAAHHHHHH
0.548 | TPP-1014: CD137A-6GS-PDA-6GS-HSA-His (bispecific antibody) EVQLVESGGGLVQPGGSLRLSCAASGFTLSNYWMNWVRQAPGKGLEWVANINQDGSERYYVDSVKGRFTISRDNAKNSLYLQMNSLRAEDTAVYYCARGGEGYGVDHYGLDVSGQGTTVTVSSGGGGSGGGGSGGGGSGGGGSGGGGSGGGGSEVQLVESGGGLVQPGRSLRLSCAASGFTFDDYALHWVRQAPGKDLEWVSGISWNGGSYGYADSVKGRFTISRDNAKNSLYLQMNSLRAEDTALYYCVREKGPGLTGSTADYYGLDAWGQGTMVTVSSGGGGSGGGGSGGGGSGGGGSGGGGSGGGGSEVQLVESGGGLVQPGRSLRLSCAASGFTFHHYAMHWVRQAPGKGLEWVSGISWNGNKITYADSVKGRFTISRDNAKNSLYLQMNSLRAEDTALYYCVRDSSLFIVGAPTFEHWGRGTLVTVSSAAAHHHHHH
